From US20150086555A1 (THERACLONE SCIENCES, published 2015) come the findings set out here.

A word on the Kd: it is a measure of binding affinity in units of concentration. A word on the koff: it is the first-order rate constant of dissociation. For orientation: kon means the second-order rate constant of association.

For assay [1], the target named is hemagglutinin on live influenza A virus, A/California/4/09 H1N1 (Influenza A virus …). The experiment in a line: cell-based or functional assay.
Assay [2] concerns the target hemagglutinin on whole influenza A virions, A/Solomon Islands/3/06 H1N1 (Influenza A virus A/Solomon …). The experiment in a line: cell-based or functional assay.
Assay [3] concerns the target hemagglutinin on whole influenza A virions, A/Wisconsin/67/05 H3N2 (Influenza A virus …). The experiment in a line: cell-based or functional assay.
In assay [4] the target is recombinant trimeric HA of H1N1 A/California/04/09 (Influenza A virus A/California/04/2009 …).

B1: TCN-551 (5243_D01) (antibody, V domains shown)
VH: EVQLVQSGSEVKKPGESLKISCKGSGYSFSNYWIGWVRHMPGKGLEWMGIIYPGDSDTRYSPSFQGQVTMSADKSSSTVYLQWSSLKASDTAIYYCARRGGHSFGYGSGGDTHSEFDSWGQGTLVTVSS
VL: QSVLTQSPSVSAAPGQKVTISCSGSDSNIGDYFVCWYQHLPGKPPQLLIYENNKRPSGIPDRFSGSKSGTSATLGITGIQTGDEADYYCATWDGSLSAWVFGGGTKLTVL
Take B1: in assay [1], the “% Neutralization” value came out at 74%.

B2: TCN-550 (5096_F06) (antibody, V domains shown)
VH: QVQLQESGPGLVKPSETLSLTCTVSGASINSHYWSWIRQPPGKGLEWIGYVYYSGSTTYNPSLKSRVTLSVDTSKNQFSLNLSSVTAADTAFYYCARHPYDVLTGSGDWFDPWGQGTLVTVSS
VL: SYVLTQAPSVSVAPGQTARITCGGNAIGSKKVHWYQHKAGQAPVLVVYDDTDRPSGIPERFSGSNSWSTATLTINRVEAGDEADYYCQVWDFTIDHVVFGGGTKLTVL
For the molecule B2, the “% Neutralization” value in assay [1] amounted to 0%.

B3: TCN-558 (5248_H10b) (antibody, V domains shown)
VH: QVQLVQSGSEVKKPGTSVKVSCTASGSVFTNYGISWVRQAPGQGLEWMGGIIPLFGAAKYAQKFQGRVTITADESTKTVYMELSRLTSKDTAIYFCAKAPRVYEYYFDQWGQGTPVTVSS
VL: EIVMTQFPATLSVSPGERVTLSCRASQSVSNNLAWYQQKPGQPPRLLIYDASTRATGVPAKFSGTGSGTEFTLSISSLQSEDFAVYYCQQYHNWPPSYSFGLGTKLEIK
For the molecule B3, the “% Neutralization” value in assay [1] amounted to 96%.

B4: TCN-549 (5092_P04) (antibody, V domains shown)
VH: QVQLVQSGAEVKKPGASVKVSCKASGYTFTGYYMHWVRQAPGQGLEWMGWINPNSGDTNYAQKFQGRVTMTRDTSITTAYMELSSLRSDDTAVYYCARDSPYSSSWSFFDYWGQGPLVTVSS
VL: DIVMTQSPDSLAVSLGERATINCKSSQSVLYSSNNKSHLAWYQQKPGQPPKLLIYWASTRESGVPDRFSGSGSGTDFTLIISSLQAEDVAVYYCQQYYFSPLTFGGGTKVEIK
With B4, the figures for the “% Neutralization” value in assay [2], in assay [3] and in assay [1] were 0%, 100% and 0%, respectively.

B5: Fab fragment of TCN-533 (5256_A17a) (Fab, V domains shown)
VH: QVQLVQSGADVKKPGSSVTVSCKASGGSFSNYGINWVRQAPGQGLEWMGGIIPLINAPNYAPKFQGRVTITADMFSNIVSLQLTSLRTDDTAVYYCARRKMTTAIDYWGQGTLVTVSS
VL: QPVLTQPPSASASLGASVTLTCTLSSAYSNYKVDWYQQRPGKGPRFVMRVGTGGIVGSKGDGIPDRFSVLGSGLNRYLTIKNIQEEDESDYHCGADHGSGSNFVSPYVFGGGTKLTVL
B5: in assay [4], the Kd turned out to be 0.129 nM, the koff turned out to be 8.2e-05 s⁻¹ and the on-rate constant (kon) was 635000 M⁻¹ s⁻¹.

B6: TCN-555 (5246_L16) (antibody, V domains shown)
VH: QVQLVQSGAEVKRPGSSVKVSCTASGGIFRKNAISWVRQAPGQGLEWMGGIIAVFNTANYAQKFQNRVKITADESGNTAYMELSSLTSDDTAVYYCASHPKYFYGSGSYPDFWGQGTLVTVSS
VL: QSALTQPRSVSGSPGQSITISCTGGSSDIGASNSVSWYQQHPGKAPKLVIFDVTERPSGVPHRFSGSKSGNTASLTVSGLQPDDEADYFCCAYGGKYLVVFGGGTKVTVL
In the case of B6, the “% Neutralization” value in assay [1] is 89%.

B7: TCN-552 (5249_I23) (antibody, V domains shown)
VH: QVQVVQSGAEVKKPGSSVRVSCQASGGTFMNYAIIWVRRAPGQGLEWMGGIIPVFPTPNYAQMFQGRVTISTDESRSTSFLELTNLRYEDTAVYYCARRIYHGGNSGFDFWGQGTLVTVSS
VL: EIVLTQSPATLSLSPGERATLSCRASQSVGNYLAWYQQKPGQAPRLLIYDSSNRAPGIPARFSGSGSGTDFTLTISSLAPEDFAVYYCQQRSKWPPMYSFGHGTKLEIK
On to B7, for which the “% Neutralization” value in assay [1] is 81%.

B8: TCN-554 (5277_M05) (antibody, V domains shown)
VH: QVQLVQSGADLKKPGASVKVSCKASGYTFTDYYIHWVRQAPGQGLEWMGWINPESGDTKYAQKFQGRVTMTRDTSITTAYMELGRLRSDDTAVYYCARDVSTTWSWFAPWGQGTLVTVSS
VL: DIVMTQSPDSLAVSLGERATINCRSSQSIFHNSNNENYLAWYQQKPGQPPKLLIYWASTRESGVPDRFSGSGSGTDFTLTISSLQAEDVAVYFCQQYYNAPLTFGGGTKVEIK
For B8, in assay [1], the “% Neutralization” value was found to be 0%.

B9: TCN-557 (5081_A04) (antibody, V domains shown)
VH: QVQLVQSGAEVKKPGASVKVSCKASGHTFTGYYIHWVRQAPGQGLEWMGWINPDSGATSSAQNFQGRVTMTGDTSSSTAYMELSRLSFDDTAVYYCARVLFTSPFDFWGEGTLVTVSS
VL: QAVVTQEPSLAVSPGGTVTLTCGSSTGAVTRGHYPYWFQQKPGQAPRALIYDSAGNRHSWTPARFSGSLLGGKAALTLSGAQPEDEAEYYCLLSYSGVWVFGGGTKLTVL
As to B9, the “% Neutralization” value in assay [2] worked out at 7%; in assay [3], 0%; in assay [1], 10%.

B10: TCN-547 (5092_F11) (antibody, V domains shown)
VH: QVQLQESGPGLVKPSQTLSLTCTVSGDSISSVDHYWSWIRQHPVKGLEWIGFMYYSASTYYNPSLKSRVTISTDTSKNQFSLRLSSVTAADTAVYYCARGTCAGDCSLHYYYYGLDVWGQGRTVTVSS
VL: DIQMTQSPSSLSASVGDRVTITCRASQSISSYLNWYQHKPGKAPKVLMYAVSILQSGVPSRFSGSGSGADFTLTISSLQPEDFATYYCQQSYSSPLTFGGGTKVEIK
Consider B10, for which the “% Neutralization” value turned out to be 0% in assay [2], 88% in assay [3] and 0% in assay [1].

B11: TCN-553 (5261_C18) (antibody, V domains shown)
VH: QVQVVQSGTEVKKPGSSVKVSCQTSGGRFMSYAITWVRQAPGQGLEWMGGIVPVFGTANYAQKFQGRVTITTDDSTRTAYMELSSLRSEDTAVYYCGFRYGSGYGFDSWGQGTLVTVSS
VL: EIVLTQSPGTLSLSPGERATLSCRASQSVSSSYLAWYQKKPGQAPRLLIYGASTRATGIPDRFTGSGSGTDFTLSISRLEPEDFAVYYCQHFGTSVFTFGGGTKVEIK
B11: in assay [1], the “% Neutralization” value worked out at 83%.

B12: TCN-548 (5092_P01) (antibody, V domains shown)
VH: QVQLQESGPGLVKPSETLSLTCTVSSGPMSDYYWSWIRQPPGKGLEWIGHVSVSHGGRTKSNPSVMSRVTISVETSKNQFSLKLTSVTAADTAVYYCARLNYYDRSGYHSPDGPSNNWFDPWGQGTLVTVSS
VL: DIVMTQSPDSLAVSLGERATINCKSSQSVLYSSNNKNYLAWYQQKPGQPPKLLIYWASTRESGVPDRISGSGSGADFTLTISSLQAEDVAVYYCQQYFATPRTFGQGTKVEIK
Regarding B12, the “% Neutralization” value was determined as 0% in assay [2], 96% in assay [3] and 0% in assay [1].
